Assay results as given in the supplement of paper PMC12764529.
± gives the half width of the 95% confidence interval.

Assays:
[1] = folding stability dG unfold from trypsin proteolysis; higher = more stable
Procedure, shortened: (§1)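 Sequencing followed digestion of designed mini-proteins with trypsin and chymotrypsin, each at 11 concentrations in threefold dilutions together with a no-protease condition. The mini-proteins were under 80 residues, had no cysteine, sat in a PA-tagged cDNA display construct, and were kept only if AlphaFold2 dimer inter-PAE was above 15. From the counts, Bayesian fitting gave K50, and unfolding free energy was derived against a sequence-predicted unfolded-state K50 and a shared folded-state K50, per protease or combined.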

[2] = folding stability dG unfold from chymotrypsin proteolysis; higher = more stable
Procedure, shortened: as §1

[3] = folding stability dG unfold (combined trypsin and chymotrypsin); higher = more stable
Procedure, shortened: as §1

Row | Sequence | folding stability dG unfold [1] | folding stability dG unfold [2] | folding stability dG unfold [3]
1 | SDRFTATVEYPDTGKTETIELDPSHLSITVEFTGSATFRVTISYDVNGDTFTVEAEFTAPLAPVPPEAFLSA [r9_1067_TrMRF] | 2.25 ± 0.15 kcal/mol | 2.67 ± 0.028 kcal/mol | 2.51 ± 0.11 kcal/mol
2 | MLLEFESEEELEKAIKELIEKAKKEVEEKGKKNEELKINIPVILHDKETGKETTRPITINIKPDGKITILDS [r1_316_JUSTAS] | 0.953 ± 0.13 kcal/mol | 1.05 ± 0.13 kcal/mol | 1.01 ± 0.23 kcal/mol
3 | SAGGSAGGSAKAVEFYFPAEEYTVEEIIDRLVKELGVPKENIKLAKVEPLENGELKVIVEIPSAGGSAGGSA [r18_118_TrMRF] | 2.82 ± 0.11 kcal/mol | 3.21 ± 0.12 kcal/mol | 3.1 ± 0.092 kcal/mol
4 | SAGGSAMKPDDYVVIKIEIENMSEEEIAKKLADELKKLFPDVEVKVTVEKEEDGRYRVTIEVVLKKSAGGSA [r15_916_TrROS_Hall] | 1.83 ± 0.056 kcal/mol | 3.34 ± 0.15 kcal/mol | 2.83 ± 0.26 kcal/mol
5 | SAGGSAGGSMRIEFPELGVEVELEPLPGPHVLLRAVFPDGRVYLFRLDPDGRLVEVEPVEVLASAGGSAGGS [r12_56_TrMRF] | 2.99 ± 0.089 kcal/mol | 3.42 ± 0.035 kcal/mol | 3.23 ± 0.11 kcal/mol
6 | SAGTVKVSEDGDKLTVTMTAPPESPALVEALIQALKDAGLTIVTAEITTEPGEGDLVRTTITLTLKPPASAG [r5_739_JUSTAS] | 2.33 ± 0.082 kcal/mol | 2.545 ± 0.024 kcal/mol | 2.46 ± 0.06 kcal/mol
7 | SAGGSAKEIKVEITYDPETNTITIKVYKDGKLVAEMTMKIEVNGKLIEVKVTLYLDPKTKKLVVKPSAGGSA [r15_770_TrROS_Hall] | 1.94 ± 0.081 kcal/mol | 3.3 ± 0.048 kcal/mol | 2.96 ± 0.13 kcal/mol
8 | SAGGSAGGSGKKRKVEIPIFFSGPPEVADNLAKTLAQELGLPPEDVDIEIKVIPIMPPEQMAESAGGSAGGS [r12_1066_TrROS] | 0.477 ± 0.054 kcal/mol | 0.818 ± 0.046 kcal/mol | 0.721 ± 0.076 kcal/mol
9 | SAGGSAGGSAGDNWVIRIWWPNGKEQVFPGNLEDLLERIPPDNKDMKVEIFDPDDGKEIWSAGGSAGGSAGG [r11_353_TrROS] | 1.09 ± 0.043 kcal/mol | 1.01 ± 0.17 kcal/mol | 1.1 ± 0.17 kcal/mol
10 | SAGGSAGGGSLTPLSEDETTITLRLSPSLDEVLKELGLTVTGVEEEGETVTVTVKVSPEVKEKLSAGGSAGG [r6_109_JUSTAS] | 0.13 ± 0.062 kcal/mol | -0.183 ± 0.2 kcal/mol | 0.00369 ± 0.19 kcal/mol
11 | SAGGSAGGSAGKPKVRLKLRLTVRVTTLNEDGSLEETEVELELEVELPEVRLPSLEELLKSAGGSAGGSAGG [r11_285_TrROS_Hall] | 3.22 ± 0.23 kcal/mol | 2.92 ± 0.24 kcal/mol | 3.07 ± 0.41 kcal/mol
12 | SAGGKTVTITVPEGMTEEEVKALAEKLIEEGFKEVTVTVTRTKTETLPNGKTKTVTETKTYVFKLPPSAGGS [r16_44_TrROS_Hall] | 3.45 ± 0.092 kcal/mol | 4.062 ± 0.036 kcal/mol | 3.88 ± 0.088 kcal/mol
13 | SAGGSAGGSAGPEKTVTLRVKITNADGQEQTLELTAETEEEALAALRALLPPGAKVEIEPSAGGSAGGSAGG [r11_671_TrROS_Hall] | 1.99 ± 0.067 kcal/mol | 3.66 ± 0.07 kcal/mol | 3.35 ± 0.087 kcal/mol
14 | SAGGMPVVIEIHVPKDKEEELARLIRRLLSELGAEVRVERFEDGIKVTAVLPDGTVIELHIVDDEKASAGGS [r16_406_TrMRF] | 4.29 ± 0.21 kcal/mol | 4.03 ± 0.17 kcal/mol | 4.24 ± 0.19 kcal/mol
15 | SAGMGVSTFPVEIVTKPDDITEEELKKRAIERLKKLFPGVKLKEVKFDIPVRELPGDEIVITMNITVNVSAG [r14_145_JUSTAS] | 1.57 ± 0.068 kcal/mol | 1.01 ± 0.035 kcal/mol | 1.33 ± 0.056 kcal/mol
16 | SAGGSAKEIKAEVKVDPETGTVTVKVYYDGKLVAEATATVEPNGEIKEVNFFFEVDPETGKLIVTGSAGGSA [r15_770_TrMRF] | 2.73 ± 0.12 kcal/mol | 3.07 ± 0.059 kcal/mol | 2.97 ± 0.066 kcal/mol
17 | SGPGPEKIKEIIKKLFPNLKIESIEEDPATGKYTIKFPNGYTVEVEVPPDGTVTLTVKTPNSTTTFTVPESA [r9_304_JUSTAS] | 2.15 ± 0.086 kcal/mol | 2.32 ± 0.031 kcal/mol | 2.26 ± 0.063 kcal/mol
18 | SASFTLTITPVSTLPGGEVKYEVTVTTPTATVTLSATYDPATGLITVTFPETGSTVTFDPATGTVTVTPSAG [r14_260_JUSTAS] | 3.93 ± 0.12 kcal/mol | 5.089 ± 0.032 kcal/mol | 5.05 ± 0.083 kcal/mol
19 | SEIEIEPLTLDEPVEYRVPEGGFTITAYAAPGPLLVRVRIPGTGEEFEIAVPLGEPNWEEVAEAVVRAIRSA [r9_982_TrMRF] | 1.759 ± 0.015 kcal/mol | 1.27 ± 0.086 kcal/mol | 1.56 ± 0.058 kcal/mol
20 | SAGGSAGGSSMTLTTLEVNPSVTIEPQPGSIVVKTPVTTLVKAGDTLVTLESESITVLPPDLLSAGGSAGGS [r12_1023_JUSTAS] | 0.486 ± 0.048 kcal/mol | 1.2 ± 0.036 kcal/mol | 1.03 ± 0.062 kcal/mol
21 | SAMEITETSLDSSTLYTFPGRRITITTTPDSYTITITLPDGTPVTLNFPPTMPLDEVKKKVIETLLASSSAG [r14_618_JUSTAS] | 0.935 ± 0.05 kcal/mol | 1.24 ± 0.16 kcal/mol | 1.19 ± 0.12 kcal/mol

Row | Sequence | folding stability dG unfold [1] | folding stability dG unfold [2] | folding stability dG unfold [3]
22 | SAGGSAATVEVTRLPGGRYVVRLRNPDTDEEIVVELPVDASTTPEDVLEAARALVAELEEEGYTIESAGGSA [r15_1022_TrMRF] | 2.92 ± 0.07 kcal/mol | 3.135 ± 0.024 kcal/mol | 3.04 ± 0.058 kcal/mol
23 | SAGGSAGGSAGGKPFKVLSVEPLEIGDKKYLRVRFEDGRVYEFPVSFDFGPDGNNVLPVESAGGSAGGSAGG [r7_931_TrMRF] | 1.93 ± 0.041 kcal/mol | 2.59 ± 0.045 kcal/mol | 2.37 ± 0.043 kcal/mol
24 | SAGKKKKKPKVKEVIIVVKVENMTAEEIAKKLAEELNVEVTKVEVKDGYVTITLKDGSKIKIEVIPEEKSAG [r5_350_TrROS_Hall] | 1.35 ± 0.11 kcal/mol | 1.76 ± 0.069 kcal/mol | 1.58 ± 0.15 kcal/mol
25 | SPPGLRIRIESPDNGEPIPFPIPPNVEVDVKRDKNGNFIATIKIQNPENGKKWTIEIDAPMRIVEIEPVPSA [r9_467_TrROS] | 1.6 ± 0.076 kcal/mol | 3.35 ± 0.16 kcal/mol | 2.76 ± 0.21 kcal/mol
26 | SAGGSADYYLIVIEIEKNGKKYKIVLVVSKEDLKKLEEEIKKKFPDVKIKIKVIKFPSKEEALKALSAGGSA [r15_889_TrROS_Hall] | 2.97 ± 0.1 kcal/mol | 3.74 ± 0.054 kcal/mol | 3.46 ± 0.12 kcal/mol
27 | SAGGKKKVTIEIVYDPEEDYVLIRIRIKDPNGNEREITIRMSRDEIKKLLEELKGKITSIEVRRLPPSAGGS [r16_298_TrROS_Hall] | 3.02 ± 0.1 kcal/mol | 3.12 ± 0.059 kcal/mol | 3.14 ± 0.12 kcal/mol
28 | SAGGSAGGPVRITSVRPIPGDPNVVVLELETVDGRPGTVLLVRLPGGERVAVLTLGDRPVVLPLSAGGSAGG [r6_555_TrMRF] | 0.42 ± 0.013 kcal/mol | 1.93 ± 0.065 kcal/mol | 1.41 ± 0.045 kcal/mol
29 | SLSITVPPDKGLVLVNEGLKDGKVKLFLDDKVEEVEVPAGETLVFEVPPDYKGFKLEVIGDDGVVLSVDGSA [r9_143_TrMRF] | 0.627 ± 0.13 kcal/mol | 0.322 ± 0.29 kcal/mol | 0.599 ± 0.22 kcal/mol
30 | SAGGSKIQISIWEDPENDYTWVTIWFPDDEELVDFFVEDIADLGVKKVETERFPDNGWRRITILIRSAGGSA [r2_358_TrROS] | 2.43 ± 0.063 kcal/mol | 3.27 ± 0.066 kcal/mol | 2.97 ± 0.12 kcal/mol
31 | SAGGMPLPDEKVNITITINYTLPGGKPKTITIPATNWTVEEANEKKKKVEEELKKVPPDPVEKDGKLLSAGG [r13_330_JUSTAS] | -0.745 ± 0.19 kcal/mol | -0.281 ± 0.24 kcal/mol | -0.354 ± 0.21 kcal/mol
32 | SAGGSAGGSAGMVLVFDKKTGELYLYDKNGKLVAKFKVEGAEEVVVLVFDPDTNELKLVPSAGGSAGGSAGG [r17_413_TrROS_Hall] | 2.49 ± 0.049 kcal/mol | 3.68 ± 0.037 kcal/mol | 3.4 ± 0.065 kcal/mol
33 | SARPLVVTNPKGSTVRLDPSTGTAEFRNLVTGETVTAKVKPVPNGVLVEVEEGGVKKTFVVPEDGKIVLGSA [r9_239_TrMRF] | 0.172 ± 0.052 kcal/mol | -0.372 ± 0.087 kcal/mol | -0.0287 ± 0.066 kcal/mol
34 | SIMIMIPPGEEIEITIEKLKDVEVMIFNNGKVREQRVPPGEEIKFELPPGAKGFMIMIKGPNGKAQMITLSA [r9_143_TrROS] | 2.74 ± 0.25 kcal/mol | 2.75 ± 0.081 kcal/mol | 2.66 ± 0.4 kcal/mol
35 | SAGGSAGGSMVEGELPDAKVTVFFHPDGGALALVEFETETVLARIDVLPDDTLKITVIPAKDASAGGSAGGS [r12_669_TrMRF] | 2.05 ± 0.05 kcal/mol | 2.252 ± 0.01 kcal/mol | 2.16 ± 0.072 kcal/mol
36 | SAGGSAGGSAMRPVSFTLVSTETAPNGVKVTKYVLTEPTGPAREYTSTNLLVEGSSLTDLSSAGGSAGGSAG [r3_261_JUSTAS] | 0.0443 ± 0.084 kcal/mol | 0.239 ± 0.1 kcal/mol | 0.202 ± 0.087 kcal/mol
37 | SAGGSAGGSAGGKTIVIEVKEEDIEEIIEAAKKAGADEVIIYNKKTNKKYKIKDGKIEPVSAGGSAGGSAGG [r7_564_TrROS_Hall] | 1.34 ± 0.032 kcal/mol | 2.02 ± 0.045 kcal/mol | 1.81 ± 0.1 kcal/mol
38 | SAGGSAGGSAGGVKEFDALAGGVPVKVKVYPDPDGNPRVEVIFPDGSKVTLSADEPLNLSAGGSAGGSAGGS [r10_989_TrMRF] | 2.26 ± 0.067 kcal/mol | 1.58 ± 0.08 kcal/mol | 1.87 ± 0.068 kcal/mol
39 | SAGGSAGGSAGGSTPTPDGSPVEITLPDGTVVTFDPATNSITIATRTPDSVSTTPIPAAASAGGSAGGSAGG [r7_527_JUSTAS] | 1.34 ± 0.031 kcal/mol | 1.08 ± 0.037 kcal/mol | 1.2 ± 0.035 kcal/mol
40 | SAGMTFPPGMTIEELKELLKKLGIKEVTVTYDKETNTVTVTVTVEGKTITITVTLPAPPVVVKEEGEEKSAG [r5_899_TrROS_Hall] | 1.77 ± 0.059 kcal/mol | 3 ± 0.1 kcal/mol | 2.53 ± 0.17 kcal/mol
41 | SAGGSAGGSAGMSVRVIEGDPALAKKFIEEHPDEIVSVEVTPHPETGTYTYVFVFKGPPKSAGGSAGGSAGG [r17_79_TrMRF] | 2.33 ± 0.086 kcal/mol | 2.44 ± 0.041 kcal/mol | 2.39 ± 0.091 kcal/mol
42 | SAGGSAGGGLDPVPIKRVTVLRNPETDEYVVLIENEDGLPYAFPFDSLEDAERFVRRLVEEGYLSAGGSAGG [r6_65_TrMRF] | 4.76 ± 0.09 kcal/mol | 5.01 ± 0.061 kcal/mol | 4.967 ± 0.047 kcal/mol
